Test results as given in US20250257149A1 (GLYCOTOPE, published 2025).

Tests used:
[1] = target: T1, MUC1 tandem repeat peptide APPAHGVTSAPD-T(X)-RPAPGSTAPPAHGVTSA with Galβ1-3GalNAcalpha (TF) at T (human, Galβ1-3GalNAcalpha (TF) O-glycan on the threonine of PDTR; biotinylated); assay: antigen ELISA on TF-glycosylated PDTR MUC1 peptide [panel Binding to TF-MUC1 peptide]
T1 construct: also called TF-PDTR MUC1 peptide; TF-MUC1 peptide
T1 peptide: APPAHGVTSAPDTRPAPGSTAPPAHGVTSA

[2] = target: T2, MUC1 tandem repeat peptide APPAHGVTSAPD-T(X)-RPAPGSTAPPAHGVTSA with GalNAcalpha (Tn) at T (human, GalNAcalpha (Tn) O-glycan on the threonine of PDTR; biotinylated); assay: antigen ELISA on Tn-PDTR MUC1 peptide, purified antibody [panel Binding to Tn-MUC1]
T2 construct: also called Tn-PDTR MUC1 peptide; Tn-MUC1 peptide
T2 peptide: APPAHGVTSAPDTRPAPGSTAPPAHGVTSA

[3] = target: T3, MUC1 tandem repeat peptide APPAHGVTSAPD-T(X)-RPAPGSTAPPAHGVTSA with sialylated TF (sTF) at T (human, not fully specified; sialylated TF (sTF) O-glycan on the threonine of PDTR; biotinylated); assay: antigen ELISA on sTF-glycosylated PDTR MUC1 peptide [panel Binding to sTF-MUC1 peptide]
T3 construct: also called sTF-PDTR MUC1 peptide
T3 peptide: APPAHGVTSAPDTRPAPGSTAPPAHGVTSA

[4] = target: T2, MUC1 tandem repeat peptide …; assay: antigen ELISA on Tn-glycosylated PDTR MUC1 peptide [panel Binding to Tn-MUC1 peptide]
[5] = target: T2, MUC1 tandem repeat peptide …; assay: SPR (Biacore), biotinylated peptide on streptavidin chip, steady-state fit of maximal RU
Description: (§1) Binding of the Fab-deglycosylated version of the MUC1-specific antibody PankoMab (PM-N54Q) on TA-MUC-1 derived glycosylated peptide was evaluated by surface plasmon resonance analysis (Biacore). A streptavidin sensor chip was coated with biotinylated TA-MUC1 peptide (Tn glycosylated or not glycosylated). PankoMab and PM-N54Q were diluted sequentially 1:3 from 3,600 to 4.9 nM in HPS-EP. The dilutions were injected at 50 μL/min. Maximal binding of each concentration was determined as response units (RU), respectively, and evaluated with GraphPad Prism using “one-site specific binding”. […] Therefore, in this experimental setting a nearly two-fold increase in affinity was detectable.

[6] = target: T4, His-tagged FcγRIIIa (Glycotope GmbH) (UniProt P08637 17-208, limits assumed); assay: AlphaScreen competition, low-fucosylated antibody; His-tagged FcγRIIIa on Ni-chelate donor beads, competitor rabbit-anti-mouse coupled acceptor beads
T4 construct: also called Fcγ receptor IIIa; CD16a; not shown: His tag
T4 sequence (P08637 17-208 limits assumed): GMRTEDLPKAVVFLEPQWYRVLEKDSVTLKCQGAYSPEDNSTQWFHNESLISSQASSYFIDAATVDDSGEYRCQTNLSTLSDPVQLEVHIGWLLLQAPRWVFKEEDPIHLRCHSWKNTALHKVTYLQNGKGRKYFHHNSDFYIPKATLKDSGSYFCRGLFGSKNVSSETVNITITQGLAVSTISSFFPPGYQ
Excerpt: For the receptor binding assays, His-tagged FcγRIIIa (Glycotope GmbH) is captured by Ni-chelate donor beads. Anti-MUC1 antibodies and rabbit-anti-mouse coupled acceptor beads compete for binding to FcγR. In case of interaction of FcγR with rabbit-anti-mouse-bound acceptor beads, donor and acceptor beads come into close proximity which leads, upon laser excitation at 680 nm, to light emission. A maximum signal is achieved (signalₘₐₓ) without a competitor. In case of competition, where a test antibody binds to FcγR, the signalₘₐₓ is reduced in a concentration-dependent manner. Chemiluminescence was quantified by measurement at 520-620 nm (AlphaScreen® method) using an EnSpire 2300 multilabel reader (PerkinElmer). All results were expressed as the mean±standard deviation of duplicate samples. The data were evaluated and calculated using non-linear curve fitting (sigmoidal dose-response variable slope) with GraphPad Prism 5 software. As a result, a concentration dependent sigmoidal curve was obtained, which is defined by top-plateau, bottom-plateau, slope and EC₅₀.

[7] = target: T2, MUC1 tandem repeat peptide …; assay: TA-MUC1 antigen ELISA, biotinylated glycopeptide
[8] = target: T5, MUC1 tandem repeat peptide APPAHGVTSAPD-T(X)-RPAPGSTAPPAHGVTSA with sialylated GalNAcalpha (sTn) at T (human, sialylated GalNAcalpha (sTn) O-glycan on the threonine of PDTR; biotinylated); assay: TA-MUC1 antigen ELISA, biotinylated glycopeptide
T5 construct: also called sTn-PDTR MUC1 peptide
T5 peptide: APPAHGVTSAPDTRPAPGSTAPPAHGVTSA

[9] = target: T3, MUC1 tandem repeat peptide …; assay: TA-MUC1 antigen ELISA, biotinylated glycopeptide
[10] = target: T1, MUC1 tandem repeat peptide …; assay: TA-MUC1 antigen ELISA, biotinylated glycopeptide
[11] = target: T6, biotinylated TA-MUC1 peptides (Example 4b); assay: fluorescence proximity sensing (DRX2 switchSENSE), biotinylated peptide captured by streptavidin
T6 construct: also called antigen peptide
Excerpt: (§2) A new method to determine binding constants and affinity is the fluorescence proximity sensing using single stranded DNA (96mer) spotted on a chip and complementary DNA coupled to a ligand. In the present study streptavidin was used as a ligand to capture biotinylated TA-MUC1 peptides. […] On- and off-rates can be calculated during association and dissociation. Due to a higher sensitivity faster interactions can be monitored compared to surface plasmon resonance.
(§3) PankoMab and PM-N54Q were diluted from 300 nM in 1:9 steps to 3.67 nM in PE140 buffer and applied to the chip-bound peptides. Binding curves were evaluated by mono-exponential global fit (instrument software). Binding curves of PM and PM-N54Q are exemplarily shown in FIGS. 3A and B. Calculated affinities of PankoMab variants are shown in Table 2: […]

[12] = target: T1, MUC1 tandem repeat peptide …; assay: antigen ELISA on TF-PDTR MUC1 peptide, purified antibody [panel Binding to TF-MUC1]
[13] = target: T2, MUC1 tandem repeat peptide …; assay: antigen ELISA on Tn-glycosylated PDTR MUC1 peptide
[14] = target: T2, MUC1 tandem repeat peptide …; assay: SPR (Biacore), biotinylated peptide on streptavidin chip
Description: as §1

[15] = target: T6, biotinylated TA-MUC1 peptides (Example …); assay: fluorescence proximity sensing (DRX, switchSENSE), biotinylated TA-MUC1 peptide captured by streptavidin; antibody at 3.7, 33.3 and 300 nM
Excerpt: as §2, §3

[16] = target: T5, MUC1 tandem repeat peptide …; assay: antigen ELISA on sTn-glycosylated PDTR MUC1 peptide [panel Binding to sTn-MUC1 peptide]

B1: humanized antibody PankoMab N54Q (without Fab glycosylation) (antibody, human IgG1, kappa)
heavy: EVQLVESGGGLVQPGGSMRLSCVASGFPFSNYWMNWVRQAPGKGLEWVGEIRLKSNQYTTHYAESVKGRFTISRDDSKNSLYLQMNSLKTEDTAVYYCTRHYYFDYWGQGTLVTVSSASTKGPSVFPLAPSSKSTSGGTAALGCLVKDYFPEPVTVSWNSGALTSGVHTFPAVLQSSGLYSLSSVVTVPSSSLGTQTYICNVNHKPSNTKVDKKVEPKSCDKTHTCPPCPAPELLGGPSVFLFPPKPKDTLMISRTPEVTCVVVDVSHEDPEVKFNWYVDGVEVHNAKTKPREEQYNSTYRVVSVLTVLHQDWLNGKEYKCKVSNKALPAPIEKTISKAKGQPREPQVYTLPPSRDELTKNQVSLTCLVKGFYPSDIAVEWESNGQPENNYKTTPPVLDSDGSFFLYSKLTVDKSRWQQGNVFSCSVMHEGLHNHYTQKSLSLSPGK
light: DIVMTQSPLSNPVTPGEPASISCRSSKSLLHSNGITYFFWYLQKPGQSPQLLIYQMSNLASGVPDRFSGSGSGTDFTLRISRVEAEDVGVYYCAQNLELPPTFGQGTKVEIKRTVAAPSVFIFPPSDEQLKSGTASVVCLLNNFYPREAKVQWKVDNALQSGNSQESVTEQDSKDSTYSLSSTLTLSKADYEKHKVYACEVTHQGLSSPVTKSFNRGEC
notes: IgG1 kappa; Made in NM-H9D8 cells (for the FcγRIIIa assay also in NM-H9D8-E6Q12, low fucose); also called PM-N54Q; PM N54Q w/o Fab glyc
- EC50 (read off the curve) [1]: ~10 ng/mL
- EC50 (read off the curve) [2]: ~10 ng/mL
- EC50 (read off the curve) [3]: ~10 ng/mL
- EC50 (read off the curve) [4]: ~10 ng/mL
- Kd [5]: 388 nM
- IC50 (read off the curve) [6]: ~4000 ng/mL
- fold higher binding compared to PankoMab-GEX® [7]: 4 fold
- fold better binding compared to PankoMab-GEX® [8]: ~7 fold
- fold better binding compared to PankoMab-GEX® [9]: 2 fold
- fold better binding compared to PankoMab-GEX® [10]: 2 fold
- Kd [11]: 1.6 nM
- EC50 (read off the curve) [12]: ~10 ng/mL
- EC50 (read off the curve) [13]: ~20 ng/mL
- fold increase in affinity compared to PankoMab-GEX® [14]: ~2 fold
- Kd [15]: 1.63 nM
- koff [15]: 0.0109 s⁻¹
- kon [15]: 6.7e+06 M⁻¹ s⁻¹
- EC50 (read off the curve) [16]: ~100 ng/mL
